The record followed here is patent publication US20240150440A1 (LUMEN BIOSCIENCE, published 2024).

Broadly, the EC50 is the concentration at which the effect is half-maximal. Read a high EC50 as a less potent agent. By IC50 is commonly meant the point on the concentration scale where inhibition reaches its midpoint. Usually Kd stands for the concentration at which binding is half-saturated.

Assay [1] addresses SARS-COV-2 Wuhan Reference RBD (SARS-CoV-2, UniProt P0DTC2 319-541). Kind of assay: ELISA, RBD coated. On the technique in general: In an ELISA, binding on a coated surface is turned into a signal by an enzyme label.
Assay [2] has as its target T1, recombinant SARS-CoV-2 RBD with C-terminal AviTag (SARS-CoV-2, UniProt P0DTC2 319-541). Kind of assay: ELISA, competition with coated ACE2-Fc for RBD [Cont. 8].
Assay [3] concerns the target T1, recombinant SARS-CoV-2 RBD with …. Kind of assay: ELISA, competition with coated ACE2-Fc for RBD [Cont. 6].
For assay [4] the target is unchanged. The assay is described as follows: BLI, biotinylated RBD on streptavidin biosensors [Cont. 6]. A general note: Biolayer interferometry detects binding as a change in optical thickness at a sensor tip.

B1: PP1098 MBP-5HVZ-PAPA-RN-9-H6 (VHH)
VHH: QVQLVESGGGLVQPGGSLRLSCAASGLRFAMTEMAWFRQAPGKQREFVALITEGGSGSYGDSVKGRFTISRDNAKNTVYLQMNSLKPEDTAVYYCAALHYTEGANTESATTFDYWGQGTQVTVSS
As for B1, the EC50 in assay [1] came out at 0.83 nM. Also, the IC50 in assay [2] is 2.3 nM.

B2: PP1100 MBP-5HVZ-PAPA-RN-14-H6 (VHH)
VHH: QVQLVESGGGLVQPGGSLRLSCAASGENFSGNLVHWFRQAPGKAREGVATVTSTGSGYYADSVKGRFTISRDNAKNTVYLQMNSLKPEDTAVYYCAAKHQKGEIPYYDWGQGTQVTVSS
notes: Form: Dimer
Molecule B2 displayed an EC50 in assay [1] of 0.31 nM. For the same molecule, the IC50 in assay [2] amounted to 3.2 nM.

B3: PP899 MBP-5HVZ-R5a-B5-H6 (VHH)
VHH: QVQLVESGGGLVQPGGSLRLSCAASGDDFIENAISWYRQAPGKGREWVAAVTLGGHSNYADSVKGRFTISRDNAKNTVYLQMNSLKPEDTAVYYCNYPVGIPAVAIDGRRSYGYWGQGTQVTVSS
notes: Form: Dimer
With B3, the IC50 in assay [3] was determined as 0.9 nM.

B4: PP901 MBP-5HVZ-R1e-B2-H6 (VHH)
VHH: QVQLVESGGGLVQPGGSLRLSCAASGQITAENYMHWYRQAPGKQREWVAAITTGGSTLYADSVKGRFTISRDNAKNTVYLQMNSLKPEDTAVYYCNADRSYFPDYWGQGTQVTVSS
notes: Form: Dimer
On to B4, for which the Kd in assay [4] is 197 nM.

B5: PP881 MBP-R5a-F2-H6 (VHH)
VHH: QVQLVESGGGLVQPGGSLRLSCAASGSISSIEAMSWFRQAPGKQREGVATMASGGDTSYADSVKGRFTISRDNAKNTVYLQMNSLKPEDTAVYYCAAQTYRPDTWGRYTFWGQGTQVTVSS
notes: Form: Monomer
As for B5, in assay [4], the Kd worked out at 705 nM.

B6: PP883 MBP-R1e-D4-H6 (VHH)
VHH: QVQLVESGGGLVQPGGSLRLSCAASGSIREINAMHWVRQAPGKGRELVASIDSGSLDYYADSVKGRFTISRDNAKNTVYLQMNSLKPEDTAVYYCAASRSGDYRYWGQGTQVTVSS
notes: Form: Monomer
In the case of B6, the Kd in assay [4] was determined as 47 nM.

B7: PP1147 MBP-5HVZ-PAPA-R5a-B7-H6 (VHH)
VHH: QVQLVESGGGLVQPGGSLRLSCAASGAFFSYGAIHWFRQAPGKQREEVAAITSGGSTGYADSVKGRFTISRDNAKNTVYLQMNSLKPEDTAVYYCNAGVVWLPSNAAYNLWGQGTQVTVSS
notes: Form: Dimer
In turn, B7 returned a concentration giving a half-maximal response (EC50) in assay [1] of 0.36 nM. Moreover, the IC50 in assay [3] worked out at 2.4 nM.

B8: PP1159 MPB-scTRP-PAPA-R5a-B7-H6 (VHH)
VHH: QVQLVESGGGLVQPGGSLRLSCAASGAFFSYGAIHWFRQAPGKQREEVAAITSGGSTGYADSVKGRFTISRDNAKNTVYLQMNSLKPEDTAVYYCNAGVVWLPSNAAYNLWGQGTQVTVSS
notes: Form: Trimer
Turning to B8, the IC50 in assay [3] was determined as 56.5 nM.

B9: PP1135 MBP-4B0F-PAPA-R5a-B7-H6 (VHH)
VHH: QVQLVESGGGLVQPGGSLRLSCAASGAFFSYGAIHWFRQAPGKQREEVAAITSGGSTGYADSVKGRFTISRDNAKNTVYLQMNSLKPEDTAVYYCNAGVVWLPSNAAYNLWGQGTQVTVSS
notes: Form: Heptamer
Take B9: in assay [3], the IC50 was 18.2 nM.

B10: PP1097 MBP-5HVZ-PAPA-RN-5-H6 (VHH)
VHH: QVQLVESGGGLVQPGGSLRLSCAASGSSFRILAMHWYRQAPGKNREWVAVITSNGNTYYADSVKGRFTISRDNAKNTVYLQMNSLKPEDTAVYYCNADTLDLDDGATYNYWGQGTQVTVSS
As to B10, a half-maximal effect in assay [1] (EC50) was put at 0.25 nM. The IC50 in assay [2] worked out at 2.3 nM.

B11: PP885 MBP-R5b-C5-H6 (VHH)
VHH: QVQLVESGGGLVQPGGSLRLSCAASGSPFKTQTVHWFRQAPGKGREWVASITSGSGTQYMDSVKGRFTISRDNAKNTVYLQMNSLKPEDTAVYYCAAANDGYGVDWGQGTQVTVSS
notes: Form: Monomer
Turning to B11, the Kd in assay [4] was 88.5 nM.

B12: PP1096 MBP-5HVZ-PAPA-RN-3-H6 (VHH)
VHH: QVQLVESGGGLVQPGGSLRLSCAASGFEFTYRAVHWFRQAPGKGREWVAGVVSGGSTYYADSVKGRFTISRDNAKNTVYLQMNSLKPEDTAVYYCNAGPQAEEDTYDYWGQGTQVTVSS
B12: in assay [1], a half-maximal response (EC50) required 1.47 nM. In addition, the IC50 in assay [2] was 46.8 nM.
